In general, stoichiometry N refers to the number of molecules, sites or subunits per partner or assembly.

For two substances, stoichiometry N results are on record in doi:10.1101/677344.

Assay [1] concerns the target AausFP1 (Aequorea cf. australis). Put plainly: crystal structure.
Assay [2] deals with AausFP2 (Aequorea cf. australis). Put plainly: crystal structure.

Regarding AausFP1 (natural protein), the stoichiometry N in assay [1] was found to be 2.

AausFP2 (natural protein): the stoichiometry N in assay [2] was found to be 2.
